Assay results reported in patent publication US6890526B2, “Methods and reagents for the treatment of multiple sclerosis” (Vanderbilt University, priority 1997, dated 2005).

Columns and labels:
[1] = tested on: MOMP gene of C. pneumoniae; test: PCR/Southern hybridization of CSF for the MOMP gene; settings: CSF PCR signal for the MOMP gene of C. pneumoniae after antibiotics; all patients PCR-positive before therapy
Protocol: To at least 300 μl of CSF sample, 200 μl of HBSS containing 0.25% trypsin and 1 mM EDTA at pH 7.2 was added to achieve a final concentration of 0.1% trypsin, and the sample vortexed and then incubated at 37° C. for 30 minutes. Following incubation, the sample was again vortexed, centrifuged for 45 minutes at 12,000×g in a microcentrifuge, and the pellet resuspended in 20 μl of lysis buffer (0.5% sodium dodecylsulfate (SDS), 1% NP40, 0.2 M NaCl, 10 μM DTT, 10 mM EDTA, 20 mM Tris-HCl at pH 7.5). To this was added 8 μl of proteinase K (20 μg/ml; Boehringer-Mannheim, Indianapolis, Ind.), after which the specimen was mixed and incubated overnight at 37° C. […]
PCR was carried out using the entire MOMP gene (1.2 kb) using Deep Vent polymerase in the manufacturer's buffer (New England Biolabs, Boston, Mass.) with no additional MgCl2. […] PCR reactions were analyzed by electrophoresis in 1% agarose gel for 45 minutes at 95 volts. For confirmation and enhanced sensitivity, the gels were further analyzed by Southern hybridization using a digoxigenin-labeled (DIG, Boehringer-Mannheim) MOMP gene probe from the TWAR strain of C. pneumoniae (ATCC VR-1310). […]
Nested PCR primers were chosen within the MOMP which are C. pneumoniae specific (located in variable domains 1 and 4) and yield a 727 bp band. […] PCR reactions were analyzed by electrophoresis in 1% agarose gel for 45 minutes at 95 volts. […]

[2] = tested on: MS patients; test: Treatment of MS patients with combinations of anti-chlamydial agents, case histories (Tables 8-10); type: in vivo, human; settings: patient; drug stopped, later phased back in
Excerpt: The case histories for these patients are described in Table 9.

[3] = tested on: MS patients; test: Long-term combination therapy of 12 progressive MS patients, EDSS (Table 11); type: in vivo, human; settings: patient #12; azithromycin substituted
Protocol: All 12 patients were positive by PCR for the MOMP gene of C. pneumoniae in the CSF. In 10 of 12 patients, the highest Expanded Disability Status Scale (EDSS; Kurtzke, Neurology 33:1444-1152, 1983) score reached was sustained for six months. […] The antibiotic regimen in eight of 12 patients was a combination of rifampin (300 mg twice daily), amoxicillin (500 mg twice daily) and probenecid (500 mg daily).

[4] = tested on: iNOS (NOS2) gene; test: RT-PCR for iNOS (NOS2) gene products in splenic macrophages; type: cell-based, mouse; settings: β-IFN alone; compared with GAPDH mRNA (FIG. 12A)
Protocol: (§1) Splenocytes were washed twice in PBS and plated in 24-well culture plates (Corning, Corning, N.Y.) in Dulbecco's minimal essential medium (DMEM; GIBCO BRL, Gaithersburg, Md.) containing 10% fetal calf serum (FCS; Hyclone, Logan, Utah) at 37° C. for two hours. Non-adherent cells were washed away by gentle rinsing in warm medium, and the macrophages were allowed to adhere to the plastic wells overnight. For optimal growth of macrophages, colony stimulating factor-1 (CSF-1) obtained from culture supernatants of LADMAC cells (American Type Tissue Collection (ATCC), Manassas, Va.) was added to reach a final concentration of 20%. After reaching confluence, cells were removed from the plastic wells by gentle trituration and examined for their purity by staining with fluoroscein-conjugated anti-CD11b and anti-I-As (clone 10-3.6) antibodies.
Mouse splenic macrophages were homogenized in TRI reagent (Molecular Research Center, Cincinnati, Ohio), and total RNA was extracted according to the manufacturer's protocol. […]

[5] = tested on: IL-12/p40; test: Sandwich ELISA for IL-12/p40 in macrophage culture supernatants; type: cell-based, mouse
Protocol: as §1
IL-12/p40 in culture supernatants was quantitated using sandwich ELISA methodology. Antibody C17.15 was coated onto ELISA plates at 2 μg/ml in 100 μl of carbonate buffer at pH 9.3. After overnight incubation at 4° C., excess antibody was washed off, and the plates were blocked by addition of PBS containing 3% BSA. Samples and standards were plated in triplicate and incubated overnight at 4° C. […] The absorbance was read at 405 nm and sample concentrations of IL-12/p40 were calculated from a rIL-12/p40 standard curve.

[6] = tested on: iNOS; test: Measurement of NO production (nitrite, Greiss reagent) in splenic macrophage culture supernatants; type: cell-based, mouse
Protocol: as §1
EB antigens were prepared from concentrated C. pneumoniae EBs by treating them with 25 mM DTT, 2% 2-mercaptoethanol, and 2% dodecylsulfate (SDS) for 5 minutes at 100° C. Treated EBs were sonicated, centrifuged (500×g for 30 minutes at room temperature) and the supernatant resuspended at 2 μg/ml protein in PBS pH 7.4. Concentrated C. pneumoniae EBs were obtained by growing C. pneumoniae (VR-1310; ATTC) in 25 ml flasks containing a confluent growth of HL cells (Human Lung Carcinoma Cells; Washington University Foundation, Seattle, Wash.) in DMEM and 10% FCS . Infection was facilitated by two washes with Hank's balanced salt solution (HBSS; GIBCO) followed by a 20 minute pre-incubation with diethylaminoethyl-dextran (30 μg/ml) (DEAE-Dextran; GIBCO) in HBSS. The infectious inoculum (ATCC VR-1310) was added to the flasks in 2 ml of serum-free media. The flasks were then centrifuged at 1,200×g for 1 hour at 4° C. To the spun flasks was added 2 ml of Iscoves medium (GIBCO) containing 4 μg/ml cyclohexamide, 20% FCS, 4 mM L-glutamine (Sigma), and 100 μg/ml gentamicin (Sigma). The flasks were then incubated at 35° C. for three days at which time the infected cells begin to lyse and release EBs. On day 4, the culture flasks were sonicated for 20 seconds, and the cell debris removed by centrifugation at 600×g for five minutes at room temperature. The supernatant containing the infectious EBs was centrifuged at 18,000×g for 30 minutes, and the pellet resolubilized in water containing 25 mM DTT, 2% 2-mercaptoethanol, and 2% SDS.
Preparation of purified rMOMP was performed as follows. The full-length native C. pneumoniae MOMP gene was expressed in the pET-32/a (+) E. coli expression system using a polyhistidine tag (Novagen, Madison, Wis.). Briefly the MOMP was amplified under the same PCR conditions with a NcoI extension on the forward primer and a NotI extension on the reverse primer. The 5′ to 3′ sequence of the forward primer was AGCTTACCATGGTGAATGAAAAAACTCTTAAAGTCGGCG (SEQ ID NO: 9) and the reverse primer was ATATGCGGCCGCTCATTAGAATCTGAACTGACCAGATACG (SEQ ID NO: 10). The product was cut with NotI and NcoI and ligated into the multiple cloning site in a previously linearized pET vector. E. coli was transformed and selectively grown, lysed with a French press, and the protein extract was run over a Ni-chelate column and eluted with […]. […]
NO is rapidly oxidized to nitrite in culture medium. […] After a 10 minute incubation at room temperature, the absorbance was read at 550 nm. Nitrite concentrations were calculated from a sodium nitrite standard curve.

In the case of CC[C@H]1OC(=O)[C@H](C)[C@@H](O[C@H]2C[C@@](C)(OC)[C@@H](O)[C@H](C)O2)[C@H](C)[C@@H](O[C@@H]2O[C@H](C)C[C@H](N(C)C)[C@H]2O)[C@](C)(O)C[C@@H](C)CN(C)[C@H](C)[C@@H](O)[C@]1(C)O [azithromycin], the “PCR Signal Post-antibiotics” value [1] is reported as “Absent”.

With Cc1ncc([N+](=O)[O-])n1CCO [metronidazole, Metronidazole] the side effects [2] was “side effects”.

For CO[C@H]1/C=C/O[C@@]2(C)Oc3c(C)c(O)c4c(O)c(c(/C=N/N5CCN(C)CC5)c(O)c4c3C2=O)NC(=O)/C(C)=C\C=C\[C@H](C)[C@H](O)[C@@H](C)[C@@H](O)[C@@H](C)[C@H](OC(C)=O)[C@@H]1C [rifampin], the side effects [3] was “gastrointestinal side effects”.

B1: β-IFN: Murine β-IFN obtained commercially (Bio-Source International); type-1 interferon (protein, UniProt P01575 22-182, looked up)
Interferon beta: INYKQLQLQERTNIRKCQELLEQLNGKINLTYRADFKIPMEMTEKMQKSYTAFAIQEMLQNVFLVFRNNFSSTGWNETIVVRLLDELHQQTVFLKTVLEEKQEERLTWEMSSTALHLKSYYWRVQRYLKLMKYNSYAWMVVRAEIFRNFLIIRRLTRNFQN
In the case of B1, the “RT-PCR signals for NOS2 gene” value [4] is reported as “increased RT-PCR signals for NOS2 gene”, the “suppression of induction of IL12/p40” value ([5]; 10 U of β-IFN, EB antigens) is reported as 78% and the IL-12/p40 levels ([5]; macrophages pretreated with β-IFN, then EB antigens for 48 hours (FIG. 14)) is reported as 1.5 ± 0.09 ng/mL. The nitrite levels ([6]; 10 U of β-IFN added to EB antigen-treated macrophages, 48 hours (FIG. 10)) was 27.3 ± 0.4 µM, the “increase in NO” value ([6]; 10 U of β-IFN, macrophages cultured with LPS) was 35% and the “increase in the nitrite level” value ([6]; 10 U of β-IFN, macrophages incubated with 2 μg/ml of rMOMP) was 47%. The “nitrite levels in supernatants” value ([6]; prior addition of 1000 U of β-IFN to EB antigen-treated cultures, 48 hours (FIG. 9)) was 19.6 µM and the “nitrite levels in macrophage culture supernatants” value ([6]; β-IFN alone, no antigen) was “did not increase nitrite levels”.
